From patent publication US20220298218A1 (ANTAG THERAPEUTICS, published 2022)
*1 amine or outer side, *2 acyl side, *3 side chain or, on linkers, in order; H or OH if unused. Where no end group is shown, it is not given here. Side-chain parts run from the residue outwards. The star is where a group is joined. C16 diacid = O=C(O)CCCCCCCCCCCCCCC(=O)*; γGlu = O=C(O)[C@H](CCC(=O)[*:2])N[*:1]; AEEA = NCCOCCOCC(=O)O

T1: human GIP receptor (human, UniProt P48546 22-466)
T1 sequence (looked up): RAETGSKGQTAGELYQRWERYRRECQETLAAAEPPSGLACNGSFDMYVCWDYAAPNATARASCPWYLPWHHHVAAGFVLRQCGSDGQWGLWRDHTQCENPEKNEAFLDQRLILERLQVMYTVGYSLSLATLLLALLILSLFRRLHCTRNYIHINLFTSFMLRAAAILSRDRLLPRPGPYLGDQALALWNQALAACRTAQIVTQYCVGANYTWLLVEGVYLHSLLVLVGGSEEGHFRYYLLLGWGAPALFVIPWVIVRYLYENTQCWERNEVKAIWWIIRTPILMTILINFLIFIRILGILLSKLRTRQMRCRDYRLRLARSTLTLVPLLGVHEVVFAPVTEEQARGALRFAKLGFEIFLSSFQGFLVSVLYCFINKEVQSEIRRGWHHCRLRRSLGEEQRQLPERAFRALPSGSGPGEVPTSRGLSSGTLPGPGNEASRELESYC


Biological target: T1, human GIP receptor
Assay: cell-based or functional assay

Binder	cAMP antagonism	cAMP antagonism % inhib	cAMP antagonism log
TFISDYK([AEEA-AEEA-AEEA-γGlu-C16 diacid])IAMDRIHQQDFVNWLLAQRGRRNDW-OH (N-terminus assumed; SMILES CC[C@H](C)[C@H](NC(=O)[C@H](CCCCNC(=O)COCCOCCNC(=O)COCCOCCNC(=O)COCCOCCNC(=O)CC[C@H](NC(=O)CCCCCCCCCCCCCCC(=O)O)C(=O)O)NC(=O)[C@H](Cc1ccc(O)cc1)NC(=O)[C@H](CC(=O)O)NC(=O)[C@H](CO)NC(=O)[C@@H](NC(=O)[C@H](Cc1ccccc1)NC(=O)[C@@H](N)[C@@H](C)O)[C@@H](C)CC)C(=O)N[C@@H](C)C(=O)N[C@@H](CCSC)C(=O)N[C@@H](CC(=O)O)C(=O)N[C@@H](CCCNC(=N)N)C(=O)N[C@H](C(=O)N[C@@H](Cc1c[nH]cn1)C(=O)N[C@@H](CCC(N)=O)C(=O)N[C@@H](CCC(N)=O)C(=O)N[C@@H](CC(=O)O)C(=O)N[C@@H](Cc1ccccc1)C(=O)N[C@H](C(=O)N[C@@H](CC(N)=O)C(=O)N[C@@H](Cc1c[nH]c2ccccc12)C(=O)N[C@@H](CC(C)C)C(=O)N[C@@H](CC(C)C)C(=O)N[C@@H](C)C(=O)N[C@@H](CCC(N)=O)C(=O)N[C@@H](CCCNC(=N)N)C(=O)NCC(=O)N[C@@H](CCCNC(=N)N)C(=O)N[C@@H](CCCNC(=N)N)C(=O)N[C@@H](CC(N)=O)C(=O)N[C@@H](CC(=O)O)C(=O)N[C@@H](Cc1c[nH]c2ccccc12)C(=O)O)C(C)C)[C@@H](C)CC) [AT428]	296 nM	90%	-6.5 log M
TFISDYKIAMDKIHQQDFVNWLLAQKGKKNDWKHNITQ (HELM PEPTIDE1{T.F.I.S.D.Y.K.I.A.M.D.K.I.H.Q.Q.D.F.V.N.W.L.L.A.Q.K.G.K.K.N.D.W.K.H.N.I.T.Q}|PEPTIDE2{[O=C(O)CCCCCCCCCCCCCCC(=O)[*:2]].[gGlu]}$PEPTIDE1,PEPTIDE2,7:R3-2:R2$$$V2.0; N-terminus assumed; SMILES CC[C@H](C)[C@H](NC(=O)[C@H](CCCCNC(=O)CC[C@H](NC(=O)CCCCCCCCCCCCCCC(=O)O)C(=O)O)NC(=O)[C@H](Cc1ccc(O)cc1)NC(=O)[C@H](CC(=O)O)NC(=O)[C@H](CO)NC(=O)[C@@H](NC(=O)[C@H](Cc1ccccc1)NC(=O)[C@@H](N)[C@@H](C)O)[C@@H](C)CC)C(=O)N[C@@H](C)C(=O)N[C@@H](CCSC)C(=O)N[C@@H](CC(=O)O)C(=O)N[C@@H](CCCCN)C(=O)N[C@H](C(=O)N[C@@H](Cc1c[nH]cn1)C(=O)N[C@@H](CCC(N)=O)C(=O)N[C@@H](CCC(N)=O)C(=O)N[C@@H](CC(=O)O)C(=O)N[C@@H](Cc1ccccc1)C(=O)N[C@H](C(=O)N[C@@H](CC(N)=O)C(=O)N[C@@H](Cc1c[nH]c2ccccc12)C(=O)N[C@@H](CC(C)C)C(=O)N[C@@H](CC(C)C)C(=O)N[C@@H](C)C(=O)N[C@@H](CCC(N)=O)C(=O)N[C@@H](CCCCN)C(=O)NCC(=O)N[C@@H](CCCCN)C(=O)N[C@@H](CCCCN)C(=O)N[C@@H](CC(N)=O)C(=O)N[C@@H](CC(=O)O)C(=O)N[C@@H](Cc1c[nH]c2ccccc12)C(=O)N[C@@H](CCCCN)C(=O)N[C@@H](Cc1c[nH]cn1)C(=O)N[C@@H](CC(N)=O)C(=O)N[C@H](C(=O)N[C@H](C(=O)N[C@@H](CCC(N)=O)C(=O)O)[C@@H](C)O)[C@@H](C)CC)C(C)C)[C@@H](C)CC) [AT368]	9 nM	100%	-8.1 log M
